These are literature values, as cited in article PMC5450005.

Read-outs that look alike come from different tables or passages of the source.

Data set [1] has as its target ApelinR (Rattus norvegicus) (UniProt Q9JHG3).
The target is the same in data set [2]. This is another data set of the same source.

Sequence of UniProt Q9JHG3 (Q9JHG3 whole entry): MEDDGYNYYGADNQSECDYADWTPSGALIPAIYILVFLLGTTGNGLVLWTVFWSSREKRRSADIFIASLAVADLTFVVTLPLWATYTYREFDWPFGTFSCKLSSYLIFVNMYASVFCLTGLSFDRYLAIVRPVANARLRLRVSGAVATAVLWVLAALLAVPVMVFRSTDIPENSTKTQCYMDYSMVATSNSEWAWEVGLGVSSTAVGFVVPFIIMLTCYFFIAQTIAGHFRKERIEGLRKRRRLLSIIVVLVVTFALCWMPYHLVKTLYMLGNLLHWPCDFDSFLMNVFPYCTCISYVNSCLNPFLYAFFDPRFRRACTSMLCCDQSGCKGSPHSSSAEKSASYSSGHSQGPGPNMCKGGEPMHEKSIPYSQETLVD

One may read the Ki as the dissociation constant of the complex between target and ligand, obtained from inhibition or displacement. With K17F (apelin-17) (from UniProt Q9ULZ1), the Ki in data set [1] is 0.06 nM.

Consider pE13F (apelin-13) (from UniProt Q9ULZ1), for which the Ki in data set [2] is 0.56 nM.
